From patent US20130177981A1

Columns and labels:
Experiment in all cases: cell-based or functional assay
[1] = biological target: gp41 of HIV-1 strain DJ258 (HIV-1 strain DJ258)
[2] = biological target: gp41 of HIV-1 strain NL4-3 (HIV-1 strain NL4-3)
[3] = biological target: gp41 of HIV-1 strain CC 1/85 (HIV-1 strain CC 1/85)
[4] = biological target: gp41 of HIV-1 strain HC4 (HIV-1 strain HC4)

Question: What does the source list for T-20 (peptide)?
Answer: Inhibition of HIV-1 infectivity, IC50 (nM), DJ258 [1]: 330 nM; Inhibition of HIV-1 infectivity, IC50 (nM), NL4-3 [2]: 700 nM; Inhibition of HIV-1 infectivity, IC50 (nM), CC 1/85 [3]: 1400 nM; Inhibition of HIV-1 infectivity, IC50 (nM), HC4 [4]: 250 nM
